Article PMC314469, “Protein Interaction Networks by Proteome Peptide Scanning” (PLoS Biology, 2004)

T1: Myo5 SH3 (MYO5_YEAST), Q04439
T1 chain: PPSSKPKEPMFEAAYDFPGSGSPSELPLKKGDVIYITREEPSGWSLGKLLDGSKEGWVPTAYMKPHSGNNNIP


Target: T1, Myo5 SH3 (MYO5_YEAST), Q04439
Assay: SPOT array
For KAVHLYFPILPHSG [YCR034W 255-268], the normalised SPOT signal, Boehringer light units (BLU); mean over the file's lines of this peptide was 125.
In the case of IPLPHQPPPLPIYS [YMR182C 149-162], the normalised SPOT signal, Boehringer light units (BLU); mean over the file's lines of this peptide is reported as 53600.
For KLKSLNLPQLPPPK [YDR266C 567-580], the normalised SPOT signal, Boehringer light units (BLU); mean over the file's lines of this peptide was 675.
Work on KPPSYPSPAQPPKS [YER114C 444-457] yielded a normalised SPOT signal, Boehringer light units (BLU); mean over the file's lines of this peptide of 11900.
Binder KFTDMLDPEKPNVI [YBR033W 385-398] has a normalised SPOT signal, Boehringer light units (BLU); mean over the file's lines of this peptide of 262.
KPSLWEAPQNPPYS [YML035C 587-600] showed a normalised SPOT signal, Boehringer light units (BLU); mean over the file's lines of this peptide of 152.
In the case of KFRQMFKPLAPNTR [YLR072W 165-178], the normalised SPOT signal, Boehringer light units (BLU); mean over the file's lines of this peptide is reported as 1220.
Binder KWTIMPHPNRPNAA [YOL008W 138-151] has a normalised SPOT signal, Boehringer light units (BLU); mean over the file's lines of this peptide of 429.
KAGSFGAPSSPTSG [YPL179W 199-212] showed a normalised SPOT signal, Boehringer light units (BLU); mean over the file's lines of this peptide of 124.
For KLALHQYPNFPSEG [YML022W 11-24], the normalised SPOT signal, Boehringer light units (BLU); mean over the file's lines of this peptide was 130.
Binder IPVGYVTPKFPSLY [YPR153W 14-27] has a normalised SPOT signal, Boehringer light units (BLU); mean over the file's lines of this peptide of 21.6.
For LALLMTDPDAPSRT [YLR179C 73-86], the normalised SPOT signal, Boehringer light units (BLU); mean over the file's lines of this peptide was 178.
In the case of KFPLMDKPSIPTLR [YNR011C 604-617], the normalised SPOT signal, Boehringer light units (BLU); mean over the file's lines of this peptide is reported as 432.
With KLPKLNVPLNPKGK [YAR009C 933-946] the normalised SPOT signal, Boehringer light units (BLU); mean over the file's lines of this peptide was 305.
In the case of KFFKHLYPAIPILD [YLR256W 487-500], the normalised SPOT signal, Boehringer light units (BLU); mean over the file's lines of this peptide is reported as 217.
KPPSYPSPVQPPQS [YBL085W 399-412] was tested, and the normalised SPOT signal, Boehringer light units (BLU); mean over the file's lines of this peptide was 16500.
In the case of LFKRLPVPAPPMDS [YNL238W 106-119], the normalised SPOT signal, Boehringer light units (BLU); mean over the file's lines of this peptide is reported as 145.
Work on KPKVLFHPHWPLYI [YJL105W 401-414] yielded a normalised SPOT signal, Boehringer light units (BLU); mean over the file's lines of this peptide of 196.
IPTSHAPPLPPTAP [YLR337C 317-330] showed a normalised SPOT signal, Boehringer light units (BLU); mean over the file's lines of this peptide of 43600.
LAKDLIVPRRPEWN [YGL099W 130-143] gave a normalised SPOT signal, Boehringer light units (BLU); mean over the file's lines of this peptide of 117000.
Binder KELIYKQPSGPGLV [YER045C 32-45] has a normalised SPOT signal, Boehringer light units (BLU); mean over the file's lines of this peptide of 79.3.
Binder KASSMPAPPPPPPP [YLR337C 391-404] has a normalised SPOT signal, Boehringer light units (BLU); mean over the file's lines of this peptide of 10500.
For KEFRFIFPLQPLFI [YGL142C 392-405], the normalised SPOT signal, Boehringer light units (BLU); mean over the file's lines of this peptide was 750.
Binder KPPVYRLPPLPRLK [YDL045W-A 4-17] has a normalised SPOT signal, Boehringer light units (BLU); mean over the file's lines of this peptide of 2310.
With KEQNWKHPLLPLLK [YDL202W 121-134] the normalised SPOT signal, Boehringer light units (BLU); mean over the file's lines of this peptide was 321.
KELLLIPPGFPTKN [YCL010C 181-194] was tested, and the normalised SPOT signal, Boehringer light units (BLU); mean over the file's lines of this peptide was 123.
KLEDLNEPLSPWIS [YPL159C 152-165] was tested, and the normalised SPOT signal, Boehringer light units (BLU); mean over the file's lines of this peptide was 71.1.
KEVDLTRPSAPSEP [YLR181C 258-271] gave a normalised SPOT signal, Boehringer light units (BLU); mean over the file's lines of this peptide of 132.
In the case of LELLLSLPTGPESK [YBR172C 710-723], the normalised SPOT signal, Boehringer light units (BLU); mean over the file's lines of this peptide is reported as 143.
KAIVWRLPKMPKIK [YFL040W 5-18] was tested, and the normalised SPOT signal, Boehringer light units (BLU); mean over the file's lines of this peptide was 515.
For LAIRLSWPPAPVTL [YDL151C 103-116], the normalised SPOT signal, Boehringer light units (BLU); mean over the file's lines of this peptide was 155.
Binder KPSVMKLPPSPKQP [YFR030W 871-884] has a normalised SPOT signal, Boehringer light units (BLU); mean over the file's lines of this peptide of 380.
KFLIHNEPIDPNDR [YIL009W 198-211] showed a normalised SPOT signal, Boehringer light units (BLU); mean over the file's lines of this peptide of 122.
KLWDLSKPSKPLKE [YAR003W 97-110] showed a normalised SPOT signal, Boehringer light units (BLU); mean over the file's lines of this peptide of 233.
KLVKFKLPFLPISD [YGR150C 548-561] gave a normalised SPOT signal, Boehringer light units (BLU); mean over the file's lines of this peptide of 974.
KPLNLSKPISPPPS [YJL157C 78-91] showed a normalised SPOT signal, Boehringer light units (BLU); mean over the file's lines of this peptide of 254.
For KPLKFLRPTYPDLS [YHR027C 87-100], the normalised SPOT signal, Boehringer light units (BLU); mean over the file's lines of this peptide was 149.
For KPMLHNVPHDPSLP [YDR231C 158-171], the normalised SPOT signal, Boehringer light units (BLU); mean over the file's lines of this peptide was 413.
In the case of KLPDLKLPPSPVPS [YML083C 113-126], the normalised SPOT signal, Boehringer light units (BLU); mean over the file's lines of this peptide is reported as 231.
Binder KPKMLPIPSKPTLF [YPL243W 531-544] has a normalised SPOT signal, Boehringer light units (BLU); mean over the file's lines of this peptide of 1360.
With KLPQLPPPPPPPPP [YIL159W 764-777] the normalised SPOT signal, Boehringer light units (BLU); mean over the file's lines of this peptide was 54100.
Binder KESKFGTPEKPLSD [YBL052C 444-457] has a normalised SPOT signal, Boehringer light units (BLU); mean over the file's lines of this peptide of 250.
Binder LASPFHDPILPRRT [YHL028W 522-535] has a normalised SPOT signal, Boehringer light units (BLU); mean over the file's lines of this peptide of 288.
KWKSLFPPFFPSDI [YCL016C 283-296] was tested, and the normalised SPOT signal, Boehringer light units (BLU); mean over the file's lines of this peptide was 242.
Work on KPSGYYGPNSPLKL [YKL108W 199-212] yielded a normalised SPOT signal, Boehringer light units (BLU); mean over the file's lines of this peptide of 159.
For KLDPLGEPFDPNKH [YOR232W 171-184], the normalised SPOT signal, Boehringer light units (BLU); mean over the file's lines of this peptide was 276.
Work on LEDALHVPTNPEIL [YDR416W 508-521] yielded a normalised SPOT signal, Boehringer light units (BLU); mean over the file's lines of this peptide of 191.
With KAPYLVQPNVPEKH [YHL002W 140-153] the normalised SPOT signal, Boehringer light units (BLU); mean over the file's lines of this peptide was 131.
For KLAPLNSPSLPTTN [YOL107W 236-249], the normalised SPOT signal, Boehringer light units (BLU); mean over the file's lines of this peptide was 212.
With KLGRFTNPQQPRED [YPL075W 704-717] the normalised SPOT signal, Boehringer light units (BLU); mean over the file's lines of this peptide was 227.
Binder KLNSLQIPHLPPSV [YHR105W 144-157] has a normalised SPOT signal, Boehringer light units (BLU); mean over the file's lines of this peptide of 350.
Work on LEFSHYAPTAPHVQ [YLR069C 734-747] yielded a normalised SPOT signal, Boehringer light units (BLU); mean over the file's lines of this peptide of 103.
KLFVLLPPIDPKDG [YNL132W 563-576] showed a normalised SPOT signal, Boehringer light units (BLU); mean over the file's lines of this peptide of 258.
Work on KELNLTGPKVPEDI [YHR027C 344-357] yielded a normalised SPOT signal, Boehringer light units (BLU); mean over the file's lines of this peptide of 102.
Binder KELPFTGPSIPFEN [YPL216W 339-352] has a normalised SPOT signal, Boehringer light units (BLU); mean over the file's lines of this peptide of 339.
Binder KFVIHNEPIDPSDK [YMR246W 198-211] has a normalised SPOT signal, Boehringer light units (BLU); mean over the file's lines of this peptide of 46.7.
KFTDMQVPKGPVSP [YOR264W 96-109] was tested, and the normalised SPOT signal, Boehringer light units (BLU); mean over the file's lines of this peptide was 197.
With KPAVLHYPPIPASA [YAL031C 680-693] the normalised SPOT signal, Boehringer light units (BLU); mean over the file's lines of this peptide was 183.
